How the values were obtained:
Assay in all cases: cryo-EM structure; single-particle cryo-EM of S trimers in situ on PFA-fixed, concentrated virions; C3 symmetry for the 3-closed-RBD maps, focused classification for 1-open-RBD trimers
[1] = target: SARS-CoV-2 spike (S) protein of the Alpha variant (B.1.1.7), on virions (SARS-CoV-2)
[2] = target: SARS-CoV-2 spike (S) protein of the B.1 variant (B.1.238), on virions (SARS-CoV-2)
[3] = target: SARS-CoV-2 spike (S) protein of the Delta variant (B.1.617.2), on virions (SARS-CoV-2)
[4] = target: SARS-CoV-2 spike (S) protein of the Gamma variant (P.1), on virions (SARS-CoV-2)
[5] = target: SARS-CoV-2 spike (S) protein of the Mu variant (B.1.621), on virions (SARS-CoV-2)

“SARS-CoV-2 spike (S) protein of the Alpha variant (B.1.1.7), on virions (natural protein)” was tested, and the stoichiometry N [1] was 3.
“SARS-CoV-2 spike (S) protein of the B.1 variant (B.1.238), on virions (natural protein)” was tested, and the stoichiometry N [2] was 3.
“SARS-CoV-2 spike (S) protein of the Delta variant (B.1.617.2), on virions (natural protein)” showed a stoichiometry N [3] of 3.
“SARS-CoV-2 spike (S) protein of the Gamma variant (P.1), on virions (natural protein)” showed a stoichiometry N [4] of 3.
“SARS-CoV-2 spike (S) protein of the Mu variant (B.1.621), on virions (natural protein)” showed a stoichiometry N [5] of 3.
